Patent US20150266969A1
Substitutions are numbered along the chain they refer to.

B1: E200 peptide (peptide)
chain: GHNYTTRNILPGLNITC
modifications: not checked
B2: PEP2-2-2 Fc (Fc fusion, not shown: a dimerising Fc or GST)
chain: EVQLLESGGGLVQPGGSLRLSCAASGFTFRNHDMGWVRQAPGKGLEWVSAISGSGGSTYYADSVKGRFTISRDNSKNTLYLQMNSLRAEDTAVYYCAEPKPMDTEFDYRSQGTLVTVSS
B3: PEP2-2-1-1 Fc (Fc fusion, not shown: a dimerising Fc or GST)
chain: B2 chain with Q111P
B4: PEP2-42 Fc (Fc fusion, not shown: a dimerising Fc or GST)
chain: EVQLLESGGGLVQPGGSLRLSCAASGFTFDNVEMSWVRQAPGKGLEWVSSIGSKGEDTYYADSVKGRFTISRDNSKNTLYLQMNSLRAEDTAVYYCAQTVNVPEPAFAYWGQGTLVTVSS
B5: PEP2-42-1 Fc (Fc fusion, not shown: a dimerising Fc or GST)
chain: B4 chain with L4M, S53T, D57Y, L86M, S119L
B6: PEP2-47 Fc (Fc fusion, not shown: a dimerising Fc or GST)
chain: B2 chain with R30P, N31M, H32K, K100S, P101H, M102F, T104R, E105P, R109W, S110G
B7: PEP2-47-1 Fc (Fc fusion, not shown: a dimerising Fc or GST)
chain: B2 chain with F27Y, R30P, N31M, H32K, S57G, K100S, P101H, M102F, T104R, E105P
B8: PEP2-247-1 Fc (Fc fusion, not shown: a dimerising Fc or GST)
chain: B2 chain with S57G, K100S, P101H, M102F, T104R, E105P
B9: PEP2-247-2 Fc (Fc fusion, not shown: a dimerising Fc or GST)
chain: B2 chain with D62N, K100S, P101H, M102F, T104R, E105P
B10: PEP2-472-1 Fc (Fc fusion, not shown: a dimerising Fc or GST)
chain: B2 chain with F27Y, R30P, N31M, H32K, S57G

Experiments:
[1] = biological target: PEP2-4 dAb; assay: immunohistochemistry on cervical cancer sections, 20 nM PEP2-4 with added free peptide; estimate between no inhibition at 10 uM and clear inhibition at 100 uM
[2] = biological target: E200 peptide; assay: Biacore, PEP2-Fc on E200

Chain of PEP2-4 dAb (chain, as listed by the source): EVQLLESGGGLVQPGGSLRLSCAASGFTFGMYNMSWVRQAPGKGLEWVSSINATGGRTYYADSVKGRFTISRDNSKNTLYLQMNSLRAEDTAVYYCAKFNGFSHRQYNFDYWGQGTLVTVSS

Binder	IC50 [1] [µM]	Kd [2] [nM]
B1	40 to 50	
B2		0.1
B3		0.09
B4		5.5
B5		0.12
B6		7.5
B7		0.11
B8		0.19
B9		0.45
B10		0.09
